This test addresses αvβ3 integrin (human (endogenous in HUVEC), UniProt P06756;P05106). Kind of test: radioligand binding.

[ ]: non-standard residue; d: D form.

αvβ3 integrin, sequence (P06756 31-1048, chain 1 of 2): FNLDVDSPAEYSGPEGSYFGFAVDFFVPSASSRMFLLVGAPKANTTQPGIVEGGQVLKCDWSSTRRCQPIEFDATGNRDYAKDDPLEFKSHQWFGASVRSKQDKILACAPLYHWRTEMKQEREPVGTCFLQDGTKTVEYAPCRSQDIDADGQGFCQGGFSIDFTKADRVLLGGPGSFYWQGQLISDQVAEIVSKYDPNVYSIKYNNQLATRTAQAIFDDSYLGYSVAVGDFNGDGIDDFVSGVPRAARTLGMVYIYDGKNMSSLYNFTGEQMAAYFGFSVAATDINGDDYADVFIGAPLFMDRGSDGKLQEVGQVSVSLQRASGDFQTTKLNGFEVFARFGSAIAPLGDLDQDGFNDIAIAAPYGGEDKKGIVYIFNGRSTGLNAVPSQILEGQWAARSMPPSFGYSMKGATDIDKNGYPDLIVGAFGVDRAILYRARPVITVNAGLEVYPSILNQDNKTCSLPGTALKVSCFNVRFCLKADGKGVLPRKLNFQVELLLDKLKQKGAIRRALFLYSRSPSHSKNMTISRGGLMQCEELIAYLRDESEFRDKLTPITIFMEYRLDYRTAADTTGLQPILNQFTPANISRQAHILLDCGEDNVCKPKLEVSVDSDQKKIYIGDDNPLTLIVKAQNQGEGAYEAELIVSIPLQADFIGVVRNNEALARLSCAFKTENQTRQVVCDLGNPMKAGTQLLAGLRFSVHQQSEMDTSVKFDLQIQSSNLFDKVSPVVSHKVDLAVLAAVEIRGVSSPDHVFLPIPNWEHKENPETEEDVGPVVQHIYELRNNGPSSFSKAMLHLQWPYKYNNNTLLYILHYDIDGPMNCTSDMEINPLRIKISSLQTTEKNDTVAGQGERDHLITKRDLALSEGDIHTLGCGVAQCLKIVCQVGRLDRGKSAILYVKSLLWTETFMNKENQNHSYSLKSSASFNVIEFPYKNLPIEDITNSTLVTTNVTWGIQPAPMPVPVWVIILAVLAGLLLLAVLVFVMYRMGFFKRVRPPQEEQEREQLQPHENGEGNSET
αvβ3 integrin, sequence (P05106 27-788, chain 2 of 2): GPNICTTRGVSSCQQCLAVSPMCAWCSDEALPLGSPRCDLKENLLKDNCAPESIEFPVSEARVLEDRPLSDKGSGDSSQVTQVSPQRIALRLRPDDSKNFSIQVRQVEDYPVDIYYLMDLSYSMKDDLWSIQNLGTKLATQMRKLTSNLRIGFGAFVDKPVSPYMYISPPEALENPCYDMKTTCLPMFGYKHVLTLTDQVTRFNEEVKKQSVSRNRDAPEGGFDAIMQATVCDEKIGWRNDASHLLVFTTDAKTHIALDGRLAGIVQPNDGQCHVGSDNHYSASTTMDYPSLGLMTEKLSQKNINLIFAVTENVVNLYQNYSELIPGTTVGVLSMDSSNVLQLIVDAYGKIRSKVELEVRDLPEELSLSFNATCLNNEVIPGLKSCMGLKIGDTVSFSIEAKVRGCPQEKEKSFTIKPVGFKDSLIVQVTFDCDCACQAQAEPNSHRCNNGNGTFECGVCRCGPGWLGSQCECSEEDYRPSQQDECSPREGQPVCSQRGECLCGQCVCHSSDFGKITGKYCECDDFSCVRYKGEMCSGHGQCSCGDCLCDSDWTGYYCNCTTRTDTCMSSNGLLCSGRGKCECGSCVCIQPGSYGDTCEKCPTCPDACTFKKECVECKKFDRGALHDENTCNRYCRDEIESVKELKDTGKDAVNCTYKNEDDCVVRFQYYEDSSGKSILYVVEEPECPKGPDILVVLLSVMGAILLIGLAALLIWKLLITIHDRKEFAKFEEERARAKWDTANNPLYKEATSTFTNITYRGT

Consider cyclo(RGD[dF]K(S‑acetylthioacetyl)) [RGD peptide c(RGDf(ε-S-acetylthioacetyl)K)], for which the half-inhibitory concentration (IC50) (usually the concentration at which inhibition is half-maximal) was 383 nM.

The values above are taken from publication PMC2217618 (Apoptosis, 2007).
